Data published in paper PMC7784082 (Cell metabolism, 2019).

Target: TAZ, mouse, expressed from plasmid (HA-TAZ WT) (mouse, UniProt Q9EPK5 1-395)
Assay: co-IP

TAZ, mouse, expressed from plasmid (HA-TAZ WT), sequence (Q9EPK5 whole entry): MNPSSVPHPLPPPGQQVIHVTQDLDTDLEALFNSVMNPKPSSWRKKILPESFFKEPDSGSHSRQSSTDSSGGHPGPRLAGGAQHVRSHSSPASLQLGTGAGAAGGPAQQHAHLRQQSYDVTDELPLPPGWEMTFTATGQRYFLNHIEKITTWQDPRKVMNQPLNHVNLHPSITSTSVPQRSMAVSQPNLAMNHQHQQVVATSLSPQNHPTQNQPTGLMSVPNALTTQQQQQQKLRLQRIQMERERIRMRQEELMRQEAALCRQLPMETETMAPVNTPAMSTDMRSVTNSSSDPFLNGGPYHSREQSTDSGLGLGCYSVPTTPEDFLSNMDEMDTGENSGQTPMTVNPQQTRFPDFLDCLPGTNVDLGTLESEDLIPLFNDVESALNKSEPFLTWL

B1: PPARγ S112D (phospho-mimic mutant of mouse PPARgamma 2) (natural protein, UniProt P37238-1 1-505, looked up)
chain: MGETLGDSPVDPEHGAFADALPMSTSQEITMVDTEMPFWPTNFGISSVDLSVMEDHSHSFDIKPFTTVDFSSISAPHYEDIPFTRADPMVADYKYDLKLQEYQSAIKVEPADPPYYSEKTQLYNRPHEEPSNSLMAIECRVCGDKASGFHYGVHACEGCKGFFRRTIRLKLIYDRCDLNCRIHKKSRNKCQYCRFQKCLAVGMSHNAIRFGRMPQAEKEKLLAEISSDIDQLNPESADLRALAKHLYDSYIKSFPLTKAKARAILTGKTTDKSPFVIYDMNSLMMGEDKIKFKHITPLQEQSKEVAIRIFQGCQFRSVEAVQEITEYAKNIPGFINLDLNDQVTLLKYGVHEIIYTMLASLMNKDGVLISEGQGFMTREFLKNLRKPFGDFMEPKFEFAVKFNALELDDSDLAIFIAVIILSGDRPGLLNVKPIEDIQDNLLQALELQLKLNHPESSQLFAKVLQKMTDLRQIVTEHVQLLHVIKKTETDMSLHPLLQEIYKDLY
fold change of association against WT PPARγ: ~2 fold
